Data reported in patent publication US20250002576A1 (FUSION PHARMACEUTICALS, published 2025).
Positions count from the first letter of the chain named.

T1: hCLDN18.1 (antigen of the scFv screening) (human, UniProt P56856 28-80)
T1 construct: ELISA or flow cytometry according to the selection strategy
T1 sequence (looked up): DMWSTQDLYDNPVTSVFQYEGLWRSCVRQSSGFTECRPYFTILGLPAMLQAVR

B1: YU578-F02 (antibody, V domains shown)
VH: not shown
VL: DIVMTQSPSFLSASVGDRVTITCRASQGISSYLAWYQQKPGKAPKLLIYAASTLQSGVPSRFSGSGSGTEFTLTISSLQPEDFATYYCQQLNSYPITFGQGTKLEIK
B2: YU574-H09 (antibody, V domains shown)
VH: QVQLVQSGAEVKKPGASVKVSCKASGYTFTSYYMHWVRQAPGQGLEWMGIINPSGGSTSYAQKFQGRVTMTRDTSTSTVYMELSSLRSEDTAVYYCARGGSGFDYWGQGTLVTVSS
VL: not shown
B3: YU575-H03 (antibody, V domains shown)
VH: not shown
VL: QSVLTQPPSVSGAPGQRVTISCTGSSSNIGAGYDVHWYQQLPGTAPKLLIYGNSNRPSGVPDRFSGSKSGTSASLAITGLQAEDEADYYCQSYDSSLSGYVFGTGTKLTVL
B4: YU574-D03 (antibody, V domains shown)
VH: not shown
VL: DIVMTQSPSSVSASVGDRVTITCRASQGISSWLAWYQQKPGKAPKLLIYAASSLQSGVPSRFSGSGSGTDFTLTISSLQPEDFATYYCQQANSFPLTFGGGTKVDIK
B5: YU577-H07 (antibody, V domains shown)
VH: not shown
VL: B4 VL with V3Q, V104L, D105E
B6: YU578-F02 (scFv as screened) (scFv, V domains shown)
VH: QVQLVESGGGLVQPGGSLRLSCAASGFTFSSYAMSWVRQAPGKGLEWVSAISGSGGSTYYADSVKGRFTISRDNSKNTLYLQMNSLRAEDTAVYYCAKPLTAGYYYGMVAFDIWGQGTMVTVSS
VL: B1 VL
B7: YU577-B01 (scFv as screened) (scFv, V domains shown)
VH: EVQLVESGGGVVQPGRSLRLSCAASGFTFSSYGMHWVRQAPGKGLEWVAVISYDGSNKYYADSVKGRFTISRDNSKNTLYLQMNSLRAEDTAVYYCAKDVTYYYDSSGSPDFDYWGQGTLVTVSS
VL: DIQLTQSPSSLSASVGDRVTITCRASQGISNYLAWFQQKPGKAPKSLIYAASSLQSGVPSKFSGSGSGTDFTLTISSLQPEDFATYYCQQYNSYPYSFGQGTKVEIK
B8: YU577-E08 (scFv as screened) (scFv, V domains shown)
VH: QVQLVQSGAEVKKPGASVKVSCKASGYTFTSYYMHWVRQAPGQGLEWMGIINPSGGSTSYAQKFQGRVTMTRDTSTSTVYMELSSLRSEDTAVYYCATRQFDYWGQGTLVTVSS
VL: QSVLTQPPSVSAAPGQKVTISCSGSSSNIGNNYVSWYQQLPGTAPKLLIYENNKRPSGIPDRFSGSKSGTSATLGITGLQTGDEADYYCGTWDSSLSAAVFGGGTKVTVL
B9: YU574-H09 (scFv as screened) (scFv, V domains shown)
VH: B2 VH
VL: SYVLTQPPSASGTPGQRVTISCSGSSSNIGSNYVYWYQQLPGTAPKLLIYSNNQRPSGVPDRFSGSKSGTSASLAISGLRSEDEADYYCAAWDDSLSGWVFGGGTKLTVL
B10: YU574-D11 (scFv as screened) (scFv, V domains shown)
VH: QVQLVQSGGGLVQPGGSLRLSCAASGFTFSSYAMSWVRQAPGKGLEWVSAISGSGGSTYYADSVKGRFTISRDNSKNTLYLQMNSLRAEDTAVYYCAGGANGFDPWGQGTLVTVSS
VL: B3 VL with Y100L, T104G
B11: YU575-H03 (scFv as screened) (scFv, V domains shown)
VH: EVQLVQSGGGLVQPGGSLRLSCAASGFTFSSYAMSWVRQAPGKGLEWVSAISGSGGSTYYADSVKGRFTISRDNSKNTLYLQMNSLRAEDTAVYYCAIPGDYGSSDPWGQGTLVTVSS
VL: B3 VL
B12: YU574-E07 (scFv as screened) (scFv, V domains shown)
VH: QVQLQESGGGVVQPGRSLRLSCAASGFTFSSYGMHWVRQAPGKGLEWVAVISYDGSNKYYADSVKGRFTISRDNSKNTLYLQMNSLRAEDTAVYYCAKDQRGGLYGMDVWGQGTLVTVSS
VL: B3 VL with V10A, Y100W, T104G
B13: YU577-E12 (scFv as screened) (scFv, V domains shown)
VH: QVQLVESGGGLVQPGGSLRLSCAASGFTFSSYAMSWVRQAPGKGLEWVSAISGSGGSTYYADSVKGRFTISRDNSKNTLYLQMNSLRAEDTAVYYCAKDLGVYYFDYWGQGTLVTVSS
VL: B1 VL with V15A, A43G, L91V, I96L, Q100P, L104V, E105D
B14: YU577-H07 (scFv as screened) (scFv, V domains shown)
VH: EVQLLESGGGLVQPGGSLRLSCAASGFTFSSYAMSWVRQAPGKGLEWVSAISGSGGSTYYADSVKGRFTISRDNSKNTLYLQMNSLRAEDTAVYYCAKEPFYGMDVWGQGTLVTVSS
VL: B4 VL with V3Q, V104L, D105E
B15: YU578-D01 (scFv as screened) (scFv, V domains shown)
VH: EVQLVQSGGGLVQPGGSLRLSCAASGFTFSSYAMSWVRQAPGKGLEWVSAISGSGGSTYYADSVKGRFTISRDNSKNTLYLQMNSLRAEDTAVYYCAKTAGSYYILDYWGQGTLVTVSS
VL: B7 VL with Y96L, S97T, Q100G, E105D
B16: YU577-B11 (scFv as screened) (scFv, V domains shown)
VH: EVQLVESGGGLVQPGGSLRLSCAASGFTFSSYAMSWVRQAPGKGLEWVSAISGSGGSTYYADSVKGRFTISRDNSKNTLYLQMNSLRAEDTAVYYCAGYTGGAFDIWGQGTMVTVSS
VL: B4 VL with V3Q, V104L, D105E
B17: YU574-D03 (scFv as screened) (scFv, V domains shown)
VH: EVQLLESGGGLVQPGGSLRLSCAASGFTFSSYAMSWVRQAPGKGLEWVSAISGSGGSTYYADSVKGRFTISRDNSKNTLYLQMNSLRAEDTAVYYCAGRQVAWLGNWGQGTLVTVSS
VL: B4 VL

molecular target: lysozyme; assay: non-specific binding ELISA, lysozyme immobilized
Procedure: DNA, LPS, lysozyme, and cell lysate were immobilized onto microtiter plates. Testing antibodies were added to the wells and incubated. Bound antibodies were detected via a fluorescently-labeled substrate. The fluorescence intensity was normalized to the signal of a control antibody (trastuzumab). Higher normalized signal correlates to stronger off-target or non-specific binding.

With B1 as the binder, how does the “normalized signal (fluorescence intensity normalized to trastuzumab)” value (from here on “normalized signal”) read?
Its value is 1.

With B2 as the binder, how does the “normalized signal” value read?
Its value is 1.3.

B3 was tested. Which “normalized signal” value did it give?
The value was 0.9.

With B4 as the binder, how does the “normalized signal” value read?
Its value is 1.1.

B5 was tested. Which “normalized signal” value did it give?
Its value is 1.3.

molecular target: T1, hCLDN18.1 (antigen of the scFv …); assay: ELISA or flow cytometry, scFv screening
Procedure: A naïve human antibody library was used to select CLDN18.2 antibodies and incubated with CLDN18.2 antigen or CLDN18.2-expressing cells for four rounds of biopanning, following the strategy described in Table 3. Monoclonal antibody clones were selected, produced as scFv antibodies, and screened using ELISA (clones identified from Strategy 1 or 2) or flow cytometry (clones identified from Strategy 3 or 4) to identify clones with hCLDN18.2 affinity and no hCLDN18.1 cross-reactivity. 188 such clones were and subsequently sequenced, yielding 68 unique antibodies. The unique antibodies were further screened using flow cytometry to identify clones with mCLDN18.2 affinity, yielding 50 human/mouse cross-reactive antibody clones.

Does B6 bind?
Result: no binding

Does B7 bind?
Result: no binding

Does B8 bind?
Result: no binding

Does B9 bind?
Result: no binding

Does B10 bind?
Result: no binding

Does B11 bind?
Result: no binding

Does B12 bind?
Result: no binding

Does B13 bind?
Result: no binding

Does B14 bind?
Result: no binding

Does B15 bind?
Result: no binding

Does B16 bind?
Result: no binding

Does B17 bind?
Result: no binding
